{"source": "paper PMC6625990", "about": "(2019)", "note": "No end group written: not given here. *: point of attachment. Biotin = O=C1N[C@H]2[C@H](CS[C@H]2CCCCC(=O)*)N1", "data": [{"target": "T1, bovine Ric8A1–492 (bovine, UniProt Q5E9J8 1-492)", "T1 chain": "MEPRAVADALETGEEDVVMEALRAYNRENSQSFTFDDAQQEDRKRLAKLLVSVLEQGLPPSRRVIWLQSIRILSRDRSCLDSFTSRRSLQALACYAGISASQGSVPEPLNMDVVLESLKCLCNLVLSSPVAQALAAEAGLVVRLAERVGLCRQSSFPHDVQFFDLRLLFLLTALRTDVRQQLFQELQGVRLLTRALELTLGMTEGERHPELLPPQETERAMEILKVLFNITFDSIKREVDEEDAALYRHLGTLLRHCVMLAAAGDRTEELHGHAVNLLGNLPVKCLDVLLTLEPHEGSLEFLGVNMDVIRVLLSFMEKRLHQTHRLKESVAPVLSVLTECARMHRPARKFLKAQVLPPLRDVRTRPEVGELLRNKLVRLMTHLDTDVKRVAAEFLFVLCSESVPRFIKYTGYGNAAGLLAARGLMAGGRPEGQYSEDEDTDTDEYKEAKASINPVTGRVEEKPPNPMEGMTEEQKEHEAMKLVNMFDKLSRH", "assay": "BLI", "units": {"Kd": "µM"}, "values": [{"binder": "Biotin-NDCRDIIQRMHLRQCGLF (cysteine pairing not given here)", "note": "[peptide C1]", "Kd": 4.7}, {"binder": "Biotin-NDCRDIIQRMHLRQYELL", "note": "[Gαs363–380]", "Kd": 4.4}, {"binder": "Biotin-NDCRDIIIRMNLRQCGLF (cysteine pairing not given here)", "note": "[peptide C2]", "Kd": 0.063}]}]}
